Our source for the protein production values is a protein production outcome set (Wang et al. 2014).

The nature of this data set: label from the status in PepcDB records.
Turning to “MGCDFAIAKDFLLFFLTKPISMKLSVIIPIYNEIQTIEKILKKITTVMPEIPKEIVMVDDGSKDGTREWLVDTFGDPEQHPVLANVNLAGKFQCFPLDQSAETNGDRQGNSFVMPKEWEVKVIFHRQNQGKGGALHTAFAAATGDVLIIQDADLEYDPEDWGPMWKLIDGGWADVVYGSRFYGNPHRVLYFHHYLGNKLITSLIDLVCNINLTDIEVCYKMFRREVLEDLRLTCNDFGFEVEFTMKVTRSPKRWRIYEVGVAYYGRTFAEGKKINWRDGVKALGYIAKFWLTNALEHHHHHH”, the protein production entry was “failed”.

In the case of “MQEGQNRKTSSLSILAIAGVEPYQEKPGEEYMNEAQLAHFRRILEAWRNQLRDEVDRTVTHMQDEAANFPDPVDRAAQEEEFSLELRNRDRERKLIKKIEKTLKKVEDEDFGYCESCGVEIGIRRLEARPTADLCIDCKTLAEIREKQMAG”, the protein production result is recorded as “not failed”.

Take “MRIFKALLKMEFLLTKRQLANLIMAIGMPVAFFLFFSGFMGEGLTKAIEAIYVRNYMITMAGFSSLSFAFFTFPFSMKDDQLSNRMQLLRHSPVPMWQYYLAKIIRILFYYCLAITVVFLTGHILRQVSMPIEQWMQSFLLLLGGATCFIPFGLLVSYFKNTELMSMVANICYMSLAVLGGMWMPITMFPKWLQALSKLTPTYHLTQVILSPFANSFAGFSLIILIGYGIIMLVIAYLLSQKRHSI”: the protein production result is given as “failed”.

For “MAIGERIRFFRNLRGMTQKYLGTVVGFPENTADIRMAQYESGSRTPKADLTENLAGVLGVSPLALSVPDIDSYLGLMHTLFTLEDRYGLTIEKGENGVSMCVDPRKGKDAAELSEMLNAWAKQAEKYHNGDISRELEHHHHHH”, the protein production result is given as “not failed”.

With “MSDLITLAQLSQGYRYNSDSLILADFILKQGIKGAVFDVGAGCGIIGILLKKNIANLSLSLIDIQKENIELIEKNLKSNKIQGDIFHDDFNQFQIIKKFDFIVCNPPFYRQGAYKSEDQHKAISKFQEFLPLHSFLAKTNSMLKPNGTLYFCYEALALDEICFILKDMKMKITKLCFVHTHQSKKARLVLIQVKKGSKSPCEILPPFFVYENEILSKQMQEIHLRFRLKSYDI”, the protein production result is listed as “failed”.

Take “MGERSDSRLAAMRTDELNIDVVLVQRLVAGQFPRWAGLGVEAVDSGGTSNAMYRLGADLVVRLPRRAGAEGDVAKEHRWLPWLAPRLPVAVPVPLGQGLPAGNYPFRWSVYRWLDGATPDVGHLVAPGLLAEDLAGFIDALHRVDPAGGPDSYRSEHLAVRDTVTREAIEELRGVVDADAARAVWETALRAPVWAGPPVWIHADLQPGNVLVDRGRLGAVIDFGCLGLGDPAVDLIVAWYVLPGDVREAFRAAVAADDASWARGRGWALSIALVELRYYRDTNPVMAGHARRVIREVLDGRER”: the protein production result is reported as “failed”.

Take “MRLAFWLYEGTALHGVSRVTNSMKGVHTVYHAPQGDDYITATYTMLERTPEFPKLSISVVRGQDLARGTSRLPGTVEQVDKHYKPELIVVAPSCSTALLQEDLGQMARASGVDQSKIMVYAVNPFRVAENEAAEGLFTELVRRFAAEQPKTEKPSVNLLGFTSLGFHLRSNLTSLRRMLKTLGIEVNVVAPWGAGIDDLKKLPAAWVNIAPFREIGCQAAGYLKEKFGMPSITEAPLGVNATLRWLRAIIAEVNKIGAEKGMAPMAMPELRDFSLDGQSAPSSVPWFARTADMESFSNKRAFVFGDATQVVGVTKFLKDELGMKIIGAGTYLPKQADWVREQLEGYLPGELMVTDKFQEVSAFIEEEMPELVCGTQMERHSCRKLDVPCMVISAPTHIENHLLGYYPFFGFDGADVMADRVYTSAKLGLEKHLIDFFGDAGLEYEAEEPEAFTEPTMSGNGTVASVSSAEAPSEAAVVTATATGELSWTAEAEKMLGKVPFFVRKKVRKNTDNYAREIGEPVVTADVFRKAKEHLGGLEHHHHHH”: the protein production result is “failed”.

As to “MKINWAENLRQNVHQLAESLGNLFVESFHYLALFAIGAVTAWAAVMEFLQMIEVGHIKIDDILLLFIYLELGAMVGIYFKTNHMPVRFLIYVAITALTRLLISNVSHHNPPDLGIIYLCGGILLLAFAILVVRYASSQFPSVKIEHPQRKIGAGSGEHPEVEKGEL”, the protein production result is “failed”.

As for “MEYFLPLISIVTISYNAVNLIEKTILSVVEQDTADFEYIVIDGGSTDGTVEVIRKYENAISYWVSESDKGIFDAMNKALSVAKGDWVIFMNSGDCFYNNHVLSEIAIYMKDEETELIYGDVNLFSGKRNFIFKQRVSGININLNSVCHQTVFIRRKLHPYFDVRYKLTADHDIIFDFIKRGQYIHANIVIAKVLLGGVSHDVIKTSLEKLLISYRKGTFMDLLLSPLCNIYQVIKYFVKKLLISALPIELFNKMSRMKSKMESNFLEHHHHHH”, the protein production entry is “not failed”.

For “MICVYTEDRWADILAAVASVRAQSRPARETLLVVDHHQTLLERLSREYKEVPEVRVLANAGPRGLSAGRNTGIAASHGEIIAFLDDDAVAERDWLRHFAEGYEDPRVMAVGGRTMPIWASGRRPAWFPEEFDWVVGCTYKGLPPGRVRVRNVLGGNASFRRTAFDAAGGFATGIGRDGDKRPLGCEETELCIRLTRARPDAILLIDDRAVIHHRVPEPREHFAYFRTRTYAEGLSKALVARSVGAGKGLESERRYTTRVLPAGVARGLRDAALARPGGAGRAGAIVAGVLTAAGGYVLGSVRARRGGATFSVVEPPDSEGEAA”, the protein production result is “failed”.

Turning to “MNSCVLFAEVIQGPELRYTQENQMAVATMVVQFASLRSEEPPMSLRTVAWGNLGQKMHAECKVGDRLILEGRLKMDTIDRPEGFKEKRAELVVSRFYTVDGNIVDHPAQPAATVPVTPRVAPPPPEFEDISLDEVPFLEHHHHHH”, the protein production entry is on record as “not failed”.

In the case of “MSQALPYRPDIDTLRAAAVLSVIVFHIEKDWLPGGFLGVDIFFVISGFLMTTILHREMSGGGGRFSLKAFYIRRIKRILPAFFAVLAATLAGGFFLFTKDDFFLLWKSALTALGFASNLYFARGKDYFDPAQEEKPLLHIWSLSVEEQFYFVFPILLLLVARKSLRVQFGFLAALCALSLAASFIPSALDKYYLPHLRACELLIGSLTAVWMRCRQPAVGRRCAAVGALFAVCILSTCLFSYSEQTAYFPGPAALIPCLAVAALIYFNHYEHPLKKFFQSKITVAAGLISYSLYLWHWPILAFMRYIGPDNLPPYSPAAAVVLILLLSLFSYHCIEKPFKKWQGSFAQSVLWIYALPMLILGAGSFFAMRLPFMAQYDRLGLTRSNTSCHNNTGKQCLWGDTEKQPELLVLGDSHADHYKTFFDAVGKKEKWSATMVSADACAYVEGYASRVFQNWAACRAVYRYAEEHLPRYSKVVLAMRWGSQMPENSRSLAYDAGFFQKFDRMLHKLSSEKQAVYLMADNLASSYNVQRAYILSSRIPGYRQALRPDDESTLKANARIRELAAKYPNVYIIDAAAYIPADFQIGGLPVYSDKDHINPYGGTELAKRFSEKQRFLDTRHNH”, the protein production entry is recorded as “failed”.

Take “MSEPHRDTKIGQVLMNRYQLTELIGKGSMGRVYRAEDILLGGVPVAVKFLSQTLLNDRMKTRFAQEARAGALLGQKSMHVVRVLDYGMNNEEIPFYVMEFLEGENLSDLLLEEPLPLSRFLRIARHMCLGLQVAHEGIIIEGQKCPIIHRDIKPSNVLVIQDGTMGELAKLLDFGIAKFLGDVPEKGQTSSFMGTLAYCSPEQIEGRELDHRSDIYSLGITMYELLTGKMPIQAESHSIGSWFKAHHFQKPIPFNVASPGLHLPPALEELIMACMAKSPSDRPQNVAEIIKVLTALEDQFGSTRVTQPGVEVGAKVSQPLERQSQPPVALATVEEVCWQSVWPADKPVAEIVFPMPLYAQRESAASLWVMLPRSEIDRRMLNLRYNQFLFTTSPHPMILWITAIYDPQQGPRWLPCYLDMKLPRNQELCLLLSETGYYPLLFFSLEDPQHCINVRTFTIATFQRQLLRDWLQTSKNLPSSAPAVVSRNLLKAEFENYKPQILAKLENVKMATVID”: the protein production result is recorded as “failed”.

“MSKTDTAAVEATEENSNETTSDAATSSSGEKEAEFDNKIEADRSRRFDFLLKQTEIFTHFMTNSAKSPTKPKGRPKKIKDKDKEKDVADHRHRKTEQEEDEELLAEDSATKEIFRFDASPAYIKSGEMRDYQIRGLNWMISLYENGINGILADEMGLG”: the protein production result is “failed”.

Consider “MDVEKIPGSVCLVAPHANANPTWPADLAWVKQVLFRMGIKVVATLTHRTPIAEIENIASAETSLLLSHDAGQKAADYLSATFGIEQVCKGIPLEHHHHHH”, for which the protein production result was “failed”.

For the sequence “RDFLPALGSMRPPIIIHRAGKKYGFTLRAIRVYMGDSDVYTVHHMVWHVEDGGPASEAGLRQGDLITHVNGEPVHGLVHTEVVELILKSGNKVAISTTPLENTSIKVGPARKGSY”, the protein production result was “failed”.

Consider “MPGWHALTKPARFRYPEGLHGREIRVEFIDNIRYKKIKNAVGRAVADFGLIRDGDRIAVAVSGGKDSYTLLHILEGLRRRAPVKYELVAVTIDSGYPGFRSDVIASYLREQGFAHHLETTDHYDIIREKRRPGSSYCSICARLKRGVLYTLAQKLGCNKLALGHHLDDFVETLLLNQFFVGTLKAMAPRMLADNGETTVIRPLVYVEEREIIPFARENRFPVVCCSCPVCGTADLQRRRMKKLLTELEKENPAVKRSLLRALGNVQPRYLLDLELQRLCDVP”, for which the protein production entry is reported as “failed”.

With “MPPLGRPCHLAAMDSTDGPLDLIAERAEAAWSRGDRHRAMTLARLGLGQDDGHPRLLAVLGAFEQAEGRSAAAAGLFRRAMARCGDDPLMLHNLGVALRGAGLIDAAAAAWEGVLRGCPQRFATLFNLARLRDDQGRGEEALALYRRACLADPAASDAAYNLGNLLARRGALAQAAEVLGKAASVTPHDARIQTNLGIVLRRLGDAAGALACQRRAVALDPDLADAQWNLANLLLALDDYDEGFARYEWRKRRAPWRLVDPPLAEWRGEDLAGRRLLVGLEQGAGDMIQAARFLPVLAGRGARVIVEAPDALAGLLATVDGVESVVAPGAWAAARATCHIRAFSLPYRLGLRFADLAATAGPYLRVPPRTPTPPALPPGGQGPCVGLCWSGNPDFTENAVRAAPLAAFAPLTAVEGLTFFSLQKGPAVAELAASGLPVIDLDPWLVDYAATAAAMARLDMVVTTDTSVAHLAGALGRPCLLLLAAHCDWRWGIGRETSPWYPSLRLLRQERLGDWRAPVARAAALLAGLRRGTDTRGPEST”, the protein production result is given as “failed”.

Consider “MSPCGPLNLSLAGEATTCAAPWVPNTSAVPPSGASPALPIFSMTLGAVSNLLALALLAQAAGRLRRRRSAATFLLFVASLLATDLAGHVIPGALVLRLYTAGRAPAGGACHFLGGCMVFFGLCPLLLGCGMAVERCVGVTRPLLHAARVSVARARLALAAVAAVALAVALLPLARVGRYELQYPGTWCFIGLGPPGGWRQALLAGLFASLGLVALLAALVCNTLSGLALLRARWRRRSRRPPPASGPDSRRRWGAHGPRSASASSASSIASASTFFGGSRSSGSARRARAHDVEMVGQLVGIMVVSCICWSPMLVLVALAVGGWSSTSLQRPLFLAVRLASWNQILDPWVYILLRQAVLRQLLRLLPPRAGAKGGPAGLGLTPSAWEASSLRSSRHSGLSHF”, for which the protein production entry was “failed”.

On to “MSLEALMNVQFFDHAHHKLKIRGLQSPVDVLTFEGREQLSTPFRYDIQFTSSDKAIAPESVLMQDGAFSLTAPPVQGMPVQTALRTLHGVITGFKHLSSSQDEARYEVRLEPRMALLTRSRQNAIYQNQTVPQIVEKILRERHQMRGQDFVFNLKSEYPAREQVMQYGEDDLTFVSRLLSEVGIWFRFATDARLKIEVIEFYDDQSGYERGLTLPLRHPSGLFDGETEAVWGLNTAYSVVEKSVSTRDYNYREATAEMTTGQHDATGGDNTTYGEAYHYADNFLQQGDKEAAESGAFYARIRHERYLNEQAILKGQSTSSLLMPGLEIKVQGDDAPAVFRKGVLITGVTTSAARDRSYELTFTAIPYSERYGYRPALIPRPVMAGTLPARVTSTVKNDIYAHIDKDGRYRVNLDFDRDTWKPGYESLWVRQSRPYAGDTYGLHLPLLAGTEVSIAFEEGNPDRPYIAGVKHDSAHTDHVTIQNEGHHHHHH”, for which the protein production entry is on record as “not failed”.
